Reference: patent publication US8282967B2, “Nitric oxide-releasing particles for nitric oxide therapeutics and biomedical applications” (The University of North Carolina at Chapel Hill, priority 2005, dated 2012)

Tests used:
[1] = system: A2780 ovarian epithelial tumor cells; experiment: MTT cell viability assay, A2780 cells; type: cell-based, human; details: small molecule NO donor; cell line not named in the sentence (b369 names OVCAR-3 for PYRRO/NO)
Protocol: To evaluate the tumoricidal potential of NO donor silica nanoparticles, the cytotoxicity of control and NO-releasing silica particles on immortalized normal (T29) and cancer (A2780 and OVCAR-3) human ovarian epithelial cells was tested. MTT cell viability assays were performed as described below. The 3-(4,5-dimethylthiazol-2-yl-)-2,5-diphenyltetrazoliumbromide (MTT) proliferation assay was employed to determine the relative sensitivities of OVCAR-3 cells to PYRRO/NO. Cells were seeded in 6 replicates at 1−5×10^3 cells/well in 96-well microtiter plates, incubated overnight, and exposed to concentrations of NO donor and control pyrrolidine solutions for 48 h. The NO-releasing medium was then removed and replaced by MTT solution, upon which the cells were incubated for an additional 4 h at 37° C. Following removal of the MTT, DMSO was added, and the absorption of the solution was measured at 560 nm using a microplate reader.
To investigate whether nanoparticle size affects cytotoxicity, two silica nanoparticles (75 mol % MAP3, balance TEOS) of different particle size (80 and 350 nm in diameter, hereafter referred to as s-MAP3 and L-MAP3, respectively) were synthesized. […] Cell viability was determined by incubating T29 and A2780 with non NO-releasing control MAP3 particle (80 nm), s-MAP3, or L-MAP3 (0.4 mg/mL) for 48 h. […]

[2] = Nitric oxide release from diazeniumdiolated materials; type: physicochemical
Protocol: Nitric oxide release of the presently disclosed NO-releasing particles was measured according to the following general procedure. Referring now to FIG. 12, a predetermined volume of phosphate buffer solution (PBS) (pH 7.4, 37° C.) was disposed in a receptacle, e.g., a round-bottomed flask. The receptacle was sealed, leaving an inlet for nitrogen gas and an outlet for a mixture of nitrogen and nitric oxide. The outlet was in fluid communication with a chemiluminescence nitric oxide analyzer. An aliquot of a solution containing a diazeniumdiolated species was injected into the PBS buffer. The chemiluminescence nitric oxide analyzer measured the amount of NO that reacted with ozone (O3) to form excited NO2*, which emitted electromagnetic radiation (hv) as shown in Scheme 2. […] NO2*→NO2+hv Scheme 2. Measurement of NO by chemiluminescence.
NO release from a variety of NO-releasing materials was measured according to the procedure outlined in Example 3. The diazeniumdiolated fumed silica particles were prepared as described in Example 9, below, grafting the fumed silica surface to N-(6-aminohexyl)-3-aminopropyltrimethoxysilane, followed by diazeniumdiolation of the secondary amine with NO gas.

[Na+].[O-]N=[N+]([O-])N1CCCC1 [PYRRO/NO]
Cytotoxic NO concentration [1]: 4.4 mM NO

Proteins (Bovine serum albumin (BSA): diazeniumdiolated bovine serum albumin
NO Released [2]: 0.54 mmol NO/g | tv2 [2]: 7.2E4. min
